# Source: US20240383984A1 (Genentech, published 2024)
# Key:
# [1] = target: truncated FcRH5 (deletion of amino acids 1-744) with N-terminal gD tag, on cells (human) (UniProt Q96RD9); assay: cell-based or functional assay
# [2] = target: T1, human FcRH5 protein fragment (soluble) (human, UniProt Q96RD9 16-851); assay: ELISA on FcRH5 (form of the coated FcRH5 not given)
# T1 construct: whole entry named; also called soluble human FcRH5; Human FcRH5 (BIACORE analyte)
# T1 sequence: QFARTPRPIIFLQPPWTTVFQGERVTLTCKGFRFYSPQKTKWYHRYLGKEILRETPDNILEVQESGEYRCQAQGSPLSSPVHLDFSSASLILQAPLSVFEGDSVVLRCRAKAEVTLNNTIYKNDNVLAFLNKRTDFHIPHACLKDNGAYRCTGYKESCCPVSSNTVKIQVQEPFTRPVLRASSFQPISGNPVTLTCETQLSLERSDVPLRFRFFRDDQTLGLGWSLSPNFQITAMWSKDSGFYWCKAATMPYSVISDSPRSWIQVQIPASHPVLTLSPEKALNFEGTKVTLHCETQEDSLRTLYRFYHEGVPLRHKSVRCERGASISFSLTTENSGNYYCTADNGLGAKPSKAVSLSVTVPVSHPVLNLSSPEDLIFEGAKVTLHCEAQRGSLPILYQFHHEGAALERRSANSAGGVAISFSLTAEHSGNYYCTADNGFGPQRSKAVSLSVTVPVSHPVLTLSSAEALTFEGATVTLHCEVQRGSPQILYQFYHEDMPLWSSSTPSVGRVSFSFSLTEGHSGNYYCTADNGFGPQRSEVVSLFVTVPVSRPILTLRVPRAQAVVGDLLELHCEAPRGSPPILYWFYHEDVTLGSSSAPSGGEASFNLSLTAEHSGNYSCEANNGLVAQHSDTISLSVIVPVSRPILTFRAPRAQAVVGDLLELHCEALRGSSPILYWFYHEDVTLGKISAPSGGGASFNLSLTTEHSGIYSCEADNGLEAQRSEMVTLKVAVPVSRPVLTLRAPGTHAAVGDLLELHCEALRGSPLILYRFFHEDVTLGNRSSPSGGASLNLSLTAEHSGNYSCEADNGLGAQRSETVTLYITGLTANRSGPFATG
# [3] = target: T2, human CD3ε (human, UniProt P07766 23-126, limits assumed); assay: ELISA on CD3
# T2 construct: also called hCD3ε
# T2 sequence (P07766 23-126 limits assumed): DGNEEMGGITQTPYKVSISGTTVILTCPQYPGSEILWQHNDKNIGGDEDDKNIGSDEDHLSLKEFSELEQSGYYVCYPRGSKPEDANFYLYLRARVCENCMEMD
# [4] = target: T1, human FcRH5 protein fragment (soluble); assay: BIACORE
# [5] = target: T3, cynomolgus FcRH5 protein fragment (soluble) (cynomolgus monkey); assay: BIACORE
# T3 construct: whole entry named; also called Cyno FcRH5 (BIACORE analyte)
# T3 chain: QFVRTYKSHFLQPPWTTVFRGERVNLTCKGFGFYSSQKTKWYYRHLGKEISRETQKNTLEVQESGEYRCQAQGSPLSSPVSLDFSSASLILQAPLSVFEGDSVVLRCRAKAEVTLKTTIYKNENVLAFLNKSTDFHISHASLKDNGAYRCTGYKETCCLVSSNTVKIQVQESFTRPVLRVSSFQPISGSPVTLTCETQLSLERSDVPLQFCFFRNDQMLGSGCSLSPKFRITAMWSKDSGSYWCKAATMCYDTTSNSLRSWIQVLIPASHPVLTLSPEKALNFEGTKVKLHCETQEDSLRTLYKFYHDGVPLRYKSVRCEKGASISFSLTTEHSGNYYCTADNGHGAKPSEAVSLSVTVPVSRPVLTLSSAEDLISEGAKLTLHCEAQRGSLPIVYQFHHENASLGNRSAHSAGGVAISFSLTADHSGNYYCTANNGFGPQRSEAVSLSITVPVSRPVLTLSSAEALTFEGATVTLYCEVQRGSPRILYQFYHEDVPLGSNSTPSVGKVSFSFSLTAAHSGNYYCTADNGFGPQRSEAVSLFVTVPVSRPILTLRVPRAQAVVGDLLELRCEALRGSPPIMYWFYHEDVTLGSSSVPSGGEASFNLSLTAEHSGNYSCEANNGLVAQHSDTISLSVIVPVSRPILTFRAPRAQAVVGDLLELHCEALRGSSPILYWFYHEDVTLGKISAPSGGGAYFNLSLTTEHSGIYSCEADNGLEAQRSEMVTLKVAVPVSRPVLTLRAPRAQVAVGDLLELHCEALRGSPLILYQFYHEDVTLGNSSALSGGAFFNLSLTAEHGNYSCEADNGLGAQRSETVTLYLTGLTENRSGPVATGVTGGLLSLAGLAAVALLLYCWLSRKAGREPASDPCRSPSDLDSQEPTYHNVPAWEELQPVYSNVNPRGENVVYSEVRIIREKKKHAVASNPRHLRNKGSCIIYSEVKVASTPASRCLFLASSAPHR
# [6] = target: T3, cynomolgus FcRH5 protein fragment …; assay: SPR (BIACORE), Cyno FcRH5, 1:1 binding model
# [7] = target: T1, human FcRH5 protein fragment (soluble); assay: SPR (BIACORE), Human FcRH5, 1:1 binding model
# [8] = target: T1, human FcRH5 protein fragment (soluble); assay: SPR screening
# [9] = target: T1, human FcRH5 protein fragment (soluble); assay: SPR (BIACORE), antibody as ligand, HuFcRH5 as sample in stepwise injections, 25 °C, 1:1 binding model
# [10] = target: T2, human CD3ε; assay: BIACORE, monovalent
# [11] = target: T2, human CD3ε; assay: assay not stated
molecule,measurement,setting,value
anti-gD/UCHT1.v9 TDB (bispecific antibody),"target cell killing with the truncated FcRH5 construct, EC50",[1],0.19 nM
"bis-Fab B (bispecific antibody, V domains shown, bis-Fab: 1G7.v85 Fab (HC A114C, constant part) crosslinked to 38E4.v1 Fab (LC N22C)) VH 1: EVQLVESGPGLVKPSETLSLTCTVSGFSLTRFGVHWVRQPPGKGLEWLGVIWRGGSTDYNAAFVSRLTISKDNSKNQVSLKLSSVTAADTAVYYCSNHYYGSSDYALDNWGQGTLVTVSS VL 1: DIQMTQSPSSLSASVGDRVTITCKASQDVRNLVVWFQQKPGKAPKLLIYSGSYRYSGVPSRFSGSGSGTDFTLTISSLQPEDFATYYCQQHYSPPYTFGQGTKVEIK VH 2: EVQLVQSGAEVKKPGASVKVSCKASGFTFTSYYIHWVRQAPGQGLEWIGWIYPENDNTKYNEKFKDRVTITADTSTSTAYLELSSLRSEDTAVYYCARDGYSRYYFDYWGQGTLVTVSS VL 2: DIVMTQSPDSLAVSLGERATICCKSSQSLLNSRTRKNYLAWYQQKPGQSPKLLIYWTSTRKSGVPDRFSGSGSGTDFTLTISSLQAEDVAVYYCKQSFILRTFGQGTKVEIK",EC50 (read off the curve),[2],~10 ng/mL
same,EC50 (read off the curve),[3],~7 ng/mL
"bis-Fab D (bispecific antibody, V domains shown, bis-Fab: 1G7.v85 Fab (LC A149C, constant part) crosslinked to 38E4.v1 Fab (LC N22C)) VH 1: EVQLVESGPGLVKPSETLSLTCTVSGFSLTRFGVHWVRQPPGKGLEWLGVIWRGGSTDYNAAFVSRLTISKDNSKNQVSLKLSSVTAADTAVYYCSNHYYGSSDYALDNWGQGTLVTVSS VL 1: DIQMTQSPSSLSASVGDRVTITCKASQDVRNLVVWFQQKPGKAPKLLIYSGSYRYSGVPSRFSGSGSGTDFTLTISSLQPEDFATYYCQQHYSPPYTFGQGTKVEIK VH 2: EVQLVQSGAEVKKPGASVKVSCKASGFTFTSYYIHWVRQAPGQGLEWIGWIYPENDNTKYNEKFKDRVTITADTSTSTAYLELSSLRSEDTAVYYCARDGYSRYYFDYWGQGTLVTVSS VL 2: DIVMTQSPDSLAVSLGERATICCKSSQSLLNSRTRKNYLAWYQQKPGQSPKLLIYWTSTRKSGVPDRFSGSGSGTDFTLTISSLQAEDVAVYYCKQSFILRTFGQGTKVEIK",EC50 (read off the curve),[2],~10 ng/mL
same,EC50 (read off the curve),[3],~7 ng/mL
"hu1G7.v93/38E4.v1 TDB (bispecific antibody, V domains shown, knob-into-hole TDB; also called 1G7.v93 TDB) VH 1: EVQLVESGPGLVKPSETLSLTCTVSGFSTTRFGVHWVRQPPGKGLEWLGVIWRGGSTDYNAAFVSRLTISKDNSKNQVSLKLSSVTAADTAVYYCSNHYYGSPDYALDNWGQGTLVTVSS VL 1: DIQMTQSPSSLSASVGDRVTITCKASQDVSNLVVWFQQKPGKAPKLLIYSGSYRYSGVPSRFSGSGSGTDFTLTISSLQPEDFATYYCQQHYSPPYTFGQGTKVEIK VH 2: EVQLVQSGAEVKKPGASVKVSCKASGFTFTSYYIHWVRQAPGQGLEWIGWIYPENDNTKYNEKFKDRVTITADTSTSTAYLELSSLRSEDTAVYYCARDGYSRYYFDYWGQGTLVTVSS VL 2: DIVMTQSPDSLAVSLGERATINCKSSQSLLNSRTRKNYLAWYQQKPGQSPKLLIYWTSTRKSGVPDRFSGSGSGTDFTLTISSLQAEDVAVYYCKQSFILRTFGQGTKVEIK",Kd,[4],1.1 nM
same,Kd,[5],8.1 nM
same,Kd,[6],8.08 nM
same,koff,[6],0.000417 s⁻¹
same,kon,[6],51600 M⁻¹ s⁻¹
same,koff,[7],0.000421 s⁻¹
same,kon,[7],395000 M⁻¹ s⁻¹
"hu1G7.v1 with heavy chain L29T and S56T (antibody, V domains shown, also called L29T/S56T double mutant) VH: EVQLVESGPGLVKPSETLSLTCTVSGFSTTRFGVHWVRQPPGKGLEWLGVIWRGGTTDYNAAFMSRLTISKDNSKNQVSLKLSSVTAADTAVYYCSNHYYGSSDYALDNWGQGTLVTVSS VL: DIQMTQSPSSLSASVGDRVTITCKASQDVSNIVVWFQQKPGKSPKLLIYSASYRYTGVPSRFSGSGSGTDFTLTISSLQPEDFATYYCQQHYSSPYTFGQGTKVEIK",average fold improvement in affinity,[8],1.2 fold
"F(ab′)2 A (bispecific antibody, V domains shown) VH 1: EVQLVESGPGLVKPSETLSLTCTVSGFSLTRFGVHWVRQPPGKGLEWLGVIWRGGSTDYNAAFVSRLTISKDNSKNQVSLKLSSVTAADTAVYYCSNHYYGSSDYALDNWGQGTLVTVSS VL 1: DIQMTQSPSSLSASVGDRVTITCKASQDVRNLVVWFQQKPGKAPKLLIYSGSYRYSGVPSRFSGSGSGTDFTLTISSLQPEDFATYYCQQHYSPPYTFGQGTKVEIK VH 2: EVQLVQSGAEVKKPGASVKVSCKASGFTFTSYYIHWVRQAPGQGLEWIGWIYPENDNTKYNEKFKDRVTITADTSTSTAYLELSSLRSEDTAVYYCARDGYSRYYFDYWGQGTLVTVSS VL 2: DIVMTQSPDSLAVSLGERATINCKSSQSLLNSRTRKNYLAWYQQKPGQSPKLLIYWTSTRKSGVPDRFSGSGSGTDFTLTISSLQAEDVAVYYCKQSFILRTFGQGTKVEIK",EC50 (read off the curve),[2],~50 ng/mL
same,EC50 (read off the curve),[3],~0.7 ng/mL
"h7D8.L1H2 (antibody, humanized, rabbit-derived anti-FcRH5 antibody; The sheet prints h7D8.L1H2* with an unexplained asterisk; also called hu7D8.L1H2; Hu7D8.L1H2) heavy chain: EVQLVESGGGLVQPGGSLRLSCAVSGIDLSSYAMGWVRQAPGKGLEWIGTIGTGGTPYYASWAKGRFTISKDSSKNTVYLQMNSLRAEDTAVYFCARDMYTGSIYYDMWGQGTLVTVSS light chain: DAQLTQSPSSLSASVGDRVTITCQSSQSVFNNAQLSWYQQKPGKPPKLLIYDTSNLASGVPSRFSGSGSGTDFTLTISSLQPEDFATYYCLGAYTDDADNAFGQGTKVEIK",koff,[9],0.00136 s⁻¹
same,kon,[9],1.08e+06 M⁻¹ s⁻¹
"38E4.v1 (antibody, V domains shown, humanized anti-CD3ε; also called anti-CD3 arm 38E4.v1) VH: EVQLVQSGAEVKKPGASVKVSCKASGFTFTSYYIHWVRQAPGQGLEWIGWIYPENDNTKYNEKFKDRVTITADTSTSTAYLELSSLRSEDTAVYYCARDGYSRYYFDYWGQGTLVTVSS VL: DIVMTQSPDSLAVSLGERATINCKSSQSLLNSRTRKNYLAWYQQKPGQSPKLLIYWTSTRKSGVPDRFSGSGSGTDFTLTISSLQAEDVAVYYCKQSFILRTFGQGTKVEIK",Kd,[10],0.5 nM
same,EC50,[11],1 nM
"38E4.v11 (antibody, V domains shown, humanized anti-CD3ε) VH: EVQLVQSGAEVKKPGASVKVSCKASGFTFTSYYIHWVRQAPGQGLEWIGWIYPENDNTKYNEKFKDRVTITADTSTSTAYLELSSLRSEDTAVYYCARDGYSRYYFDYWGQGTLVTVSS VL: DIVMTQSPDSLAVSLGERATINCKSSQSLLNSRTRKNYLAWYQQKPGQSPKLLIYWTSTRKSGVPDRFSGSGSGTDFTLTISSLQAEDVAVYYCTQSFILRTFGQGTKVEIK",EC50,[11],0.05 nM
"40G5c (antibody, V domains shown, humanized anti-CD3ε; also called hu40G5c) VH: EVQLVQSGAEVKKPGASVKVSCKASGYTFTNYYIHWVRQAPGQGLEWIGWIYPGDGNTKYNEKFKGRATLTADTSTSTAYLELSSLRSEDTAVYYCARDSYSNYYFDYWGQGTLVTVSS VL: DIVMTQSPDSLAVSLGERATINCKSSQSLLNSRTRKNYLAWYQQKPGQPPKLLIYWASTRESGVPDRFSGSGSGTDFTLTISSLQAEDVAVYYCTQSFILRTFGQGTKVEIK",Kd,[10],51 nM
same,EC50,[11],13 nM
